Assay results: patent publication US20190134153A1, “IMMUNOMODULATORY EFFECT OF INHALED KINASE INHIBITOR PEPTIDES IN LUNG” (MOERAE MATRIX, INC., priority 2017, published 2019)

Key:
Assay in all cases: Kinase Profiling Assay
Assay type in all cases: biochemical
Conditions in all cases: 100 μM
CaMKIIγ(h) = CaMKIIγ(h) (Homo sapiens, UniProt Q13555)
DCAMKL2(h) = target: T1, DCAMKL2(h) (Homo sapiens, UniProt Q8N568)
T1 sequence (Q8N568 1-766): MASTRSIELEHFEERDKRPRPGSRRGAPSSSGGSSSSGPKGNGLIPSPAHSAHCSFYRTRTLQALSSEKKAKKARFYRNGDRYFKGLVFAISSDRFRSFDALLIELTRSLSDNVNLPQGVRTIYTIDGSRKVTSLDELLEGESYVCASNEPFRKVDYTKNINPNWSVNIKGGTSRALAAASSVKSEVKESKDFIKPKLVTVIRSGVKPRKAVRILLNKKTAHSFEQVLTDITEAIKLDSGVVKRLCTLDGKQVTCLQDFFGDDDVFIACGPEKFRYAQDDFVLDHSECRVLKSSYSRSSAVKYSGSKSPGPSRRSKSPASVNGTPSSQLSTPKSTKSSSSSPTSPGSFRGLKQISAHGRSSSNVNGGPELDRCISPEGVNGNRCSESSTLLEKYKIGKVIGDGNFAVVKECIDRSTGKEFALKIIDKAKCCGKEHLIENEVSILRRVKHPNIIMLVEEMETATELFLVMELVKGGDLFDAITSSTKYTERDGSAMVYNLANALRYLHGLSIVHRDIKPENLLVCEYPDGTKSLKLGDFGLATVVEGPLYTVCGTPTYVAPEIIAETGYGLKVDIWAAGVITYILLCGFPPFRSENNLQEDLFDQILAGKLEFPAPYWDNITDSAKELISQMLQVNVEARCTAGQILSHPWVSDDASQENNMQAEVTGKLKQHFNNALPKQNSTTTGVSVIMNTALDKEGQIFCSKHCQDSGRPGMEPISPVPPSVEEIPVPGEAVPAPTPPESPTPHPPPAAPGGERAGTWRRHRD

eEF-2K(h) = eEF-2K(h) (Homo sapiens, UniProt O00418)
Flt4(h) = Flt4(h) (Homo sapiens, UniProt P35916)
Haspin(h) = target: T2, Haspin(h) (Homo sapiens, UniProt Q8TF76)
T2 sequence (Q8TF76 1-798): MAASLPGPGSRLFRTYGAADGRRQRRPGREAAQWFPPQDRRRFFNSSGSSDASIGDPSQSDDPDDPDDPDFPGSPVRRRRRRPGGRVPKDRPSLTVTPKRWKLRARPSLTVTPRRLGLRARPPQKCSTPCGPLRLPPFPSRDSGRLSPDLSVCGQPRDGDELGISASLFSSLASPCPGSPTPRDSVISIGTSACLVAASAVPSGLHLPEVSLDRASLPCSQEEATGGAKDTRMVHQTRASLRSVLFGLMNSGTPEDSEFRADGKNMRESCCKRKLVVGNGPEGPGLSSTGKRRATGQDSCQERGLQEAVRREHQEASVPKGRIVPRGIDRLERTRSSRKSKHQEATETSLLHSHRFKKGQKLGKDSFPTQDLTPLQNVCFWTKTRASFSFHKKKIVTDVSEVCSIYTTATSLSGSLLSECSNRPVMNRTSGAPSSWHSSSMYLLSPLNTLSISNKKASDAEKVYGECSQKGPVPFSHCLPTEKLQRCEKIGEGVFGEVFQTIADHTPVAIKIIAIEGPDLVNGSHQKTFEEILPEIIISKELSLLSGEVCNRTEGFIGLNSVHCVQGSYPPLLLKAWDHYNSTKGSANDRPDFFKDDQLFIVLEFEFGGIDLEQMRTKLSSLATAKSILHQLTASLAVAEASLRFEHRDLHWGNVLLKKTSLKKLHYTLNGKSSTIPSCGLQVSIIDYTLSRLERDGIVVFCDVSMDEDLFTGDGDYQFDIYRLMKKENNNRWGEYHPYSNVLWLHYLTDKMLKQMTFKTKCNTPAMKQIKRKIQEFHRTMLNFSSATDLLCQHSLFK

IR(h) = IR(h) (Homo sapiens, UniProt P06213)
IRR(h) = IRR(h) (Homo sapiens, UniProt P14616)
Sequence of IRR(h) (P14616 27-1297): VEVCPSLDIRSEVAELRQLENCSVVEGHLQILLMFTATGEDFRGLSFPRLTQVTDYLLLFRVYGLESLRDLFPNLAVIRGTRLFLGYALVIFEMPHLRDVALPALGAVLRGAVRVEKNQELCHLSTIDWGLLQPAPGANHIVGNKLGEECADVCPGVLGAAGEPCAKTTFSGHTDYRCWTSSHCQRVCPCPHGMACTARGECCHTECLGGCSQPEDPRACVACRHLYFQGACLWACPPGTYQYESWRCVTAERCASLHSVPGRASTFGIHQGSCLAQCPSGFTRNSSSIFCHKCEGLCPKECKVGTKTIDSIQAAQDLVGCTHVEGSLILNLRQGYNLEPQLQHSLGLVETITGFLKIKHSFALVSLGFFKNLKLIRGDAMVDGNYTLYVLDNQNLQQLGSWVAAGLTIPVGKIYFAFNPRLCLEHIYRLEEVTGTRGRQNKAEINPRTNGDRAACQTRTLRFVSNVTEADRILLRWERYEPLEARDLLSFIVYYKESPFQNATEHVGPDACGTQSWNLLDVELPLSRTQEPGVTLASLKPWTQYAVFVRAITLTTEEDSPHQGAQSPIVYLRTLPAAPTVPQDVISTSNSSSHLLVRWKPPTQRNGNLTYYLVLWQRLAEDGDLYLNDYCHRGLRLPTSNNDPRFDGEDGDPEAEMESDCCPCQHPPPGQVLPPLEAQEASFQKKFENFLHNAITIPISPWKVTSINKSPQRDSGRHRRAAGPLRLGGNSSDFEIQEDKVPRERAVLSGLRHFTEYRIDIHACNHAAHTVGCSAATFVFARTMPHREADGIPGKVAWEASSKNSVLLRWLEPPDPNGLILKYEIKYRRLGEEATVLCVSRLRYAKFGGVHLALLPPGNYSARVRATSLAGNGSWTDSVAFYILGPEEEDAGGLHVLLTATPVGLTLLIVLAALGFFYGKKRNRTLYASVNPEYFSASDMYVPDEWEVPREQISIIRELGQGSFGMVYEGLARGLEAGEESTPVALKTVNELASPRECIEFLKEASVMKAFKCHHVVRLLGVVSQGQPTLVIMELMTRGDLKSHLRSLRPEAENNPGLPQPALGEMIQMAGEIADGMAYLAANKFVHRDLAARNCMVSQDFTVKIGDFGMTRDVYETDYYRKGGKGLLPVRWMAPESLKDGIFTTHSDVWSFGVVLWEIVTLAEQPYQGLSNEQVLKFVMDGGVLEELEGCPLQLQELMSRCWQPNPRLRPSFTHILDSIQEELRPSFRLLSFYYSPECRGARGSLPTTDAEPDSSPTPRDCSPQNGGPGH

NLK(h) = target: T3, NLK(h) (Homo sapiens, UniProt Q9UBE8)
T3 sequence (Q9UBE8 1-527): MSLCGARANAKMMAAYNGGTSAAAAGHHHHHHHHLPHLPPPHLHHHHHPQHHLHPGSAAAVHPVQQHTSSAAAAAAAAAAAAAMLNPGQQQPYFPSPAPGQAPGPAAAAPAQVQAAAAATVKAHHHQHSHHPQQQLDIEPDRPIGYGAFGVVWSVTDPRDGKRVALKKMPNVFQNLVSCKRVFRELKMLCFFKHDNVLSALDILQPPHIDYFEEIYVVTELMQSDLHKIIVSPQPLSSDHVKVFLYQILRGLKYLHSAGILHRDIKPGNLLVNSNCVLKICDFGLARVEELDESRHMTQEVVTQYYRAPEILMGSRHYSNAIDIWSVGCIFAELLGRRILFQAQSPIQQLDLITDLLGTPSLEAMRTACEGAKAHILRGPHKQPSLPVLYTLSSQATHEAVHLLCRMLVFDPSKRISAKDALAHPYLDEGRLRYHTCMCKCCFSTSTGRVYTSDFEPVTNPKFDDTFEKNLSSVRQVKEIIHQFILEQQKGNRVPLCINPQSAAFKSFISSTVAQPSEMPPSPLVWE

Pim-3(h) = Pim-3(h) (Homo sapiens, UniProt Q86V86)
PKBγ(h) = PKBγ(h) (Homo sapiens, UniProt Q9Y243)
Sequence of PKBγ(h) (Q9Y243 whole entry): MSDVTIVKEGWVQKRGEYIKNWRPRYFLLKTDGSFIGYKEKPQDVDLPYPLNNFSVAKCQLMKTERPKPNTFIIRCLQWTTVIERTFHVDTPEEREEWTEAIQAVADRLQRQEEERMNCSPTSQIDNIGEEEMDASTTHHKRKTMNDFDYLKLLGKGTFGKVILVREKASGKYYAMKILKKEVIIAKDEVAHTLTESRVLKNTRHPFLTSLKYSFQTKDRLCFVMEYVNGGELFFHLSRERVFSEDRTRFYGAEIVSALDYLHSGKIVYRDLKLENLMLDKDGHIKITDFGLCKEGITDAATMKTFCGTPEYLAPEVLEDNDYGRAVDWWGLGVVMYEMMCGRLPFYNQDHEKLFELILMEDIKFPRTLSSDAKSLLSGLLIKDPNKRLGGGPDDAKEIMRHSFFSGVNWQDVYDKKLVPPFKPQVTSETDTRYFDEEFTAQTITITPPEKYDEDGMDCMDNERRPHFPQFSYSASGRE

PKCθ(h) = PKCθ(h) (Homo sapiens, UniProt Q04759)
Sequence of PKCθ(h) (Q04759 whole entry): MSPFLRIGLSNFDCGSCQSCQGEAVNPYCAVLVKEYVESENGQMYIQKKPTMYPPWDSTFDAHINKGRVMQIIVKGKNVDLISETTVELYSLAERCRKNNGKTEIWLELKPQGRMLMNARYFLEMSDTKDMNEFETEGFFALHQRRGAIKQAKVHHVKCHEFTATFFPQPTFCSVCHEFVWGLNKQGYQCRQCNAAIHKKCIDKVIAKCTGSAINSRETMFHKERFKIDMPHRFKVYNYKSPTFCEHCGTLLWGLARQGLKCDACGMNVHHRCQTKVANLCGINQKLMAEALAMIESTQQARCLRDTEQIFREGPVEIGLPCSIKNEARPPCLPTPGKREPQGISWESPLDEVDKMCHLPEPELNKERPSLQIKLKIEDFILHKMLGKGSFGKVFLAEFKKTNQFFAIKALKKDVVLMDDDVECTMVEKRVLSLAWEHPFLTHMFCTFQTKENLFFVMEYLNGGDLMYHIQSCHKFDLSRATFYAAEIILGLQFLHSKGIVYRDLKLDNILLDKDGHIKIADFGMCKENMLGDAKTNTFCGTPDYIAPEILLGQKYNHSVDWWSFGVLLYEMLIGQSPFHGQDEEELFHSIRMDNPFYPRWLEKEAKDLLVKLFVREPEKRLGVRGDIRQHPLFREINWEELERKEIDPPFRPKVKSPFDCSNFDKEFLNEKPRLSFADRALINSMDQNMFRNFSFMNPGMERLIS

PRK2(h) = PRK2(h) (Homo sapiens, UniProt Q16513)
ROCK-I(h) = ROCK-I(h) (Homo sapiens, UniProt Q13464)
Sequence of ROCK-I(h) (Q13464 whole entry): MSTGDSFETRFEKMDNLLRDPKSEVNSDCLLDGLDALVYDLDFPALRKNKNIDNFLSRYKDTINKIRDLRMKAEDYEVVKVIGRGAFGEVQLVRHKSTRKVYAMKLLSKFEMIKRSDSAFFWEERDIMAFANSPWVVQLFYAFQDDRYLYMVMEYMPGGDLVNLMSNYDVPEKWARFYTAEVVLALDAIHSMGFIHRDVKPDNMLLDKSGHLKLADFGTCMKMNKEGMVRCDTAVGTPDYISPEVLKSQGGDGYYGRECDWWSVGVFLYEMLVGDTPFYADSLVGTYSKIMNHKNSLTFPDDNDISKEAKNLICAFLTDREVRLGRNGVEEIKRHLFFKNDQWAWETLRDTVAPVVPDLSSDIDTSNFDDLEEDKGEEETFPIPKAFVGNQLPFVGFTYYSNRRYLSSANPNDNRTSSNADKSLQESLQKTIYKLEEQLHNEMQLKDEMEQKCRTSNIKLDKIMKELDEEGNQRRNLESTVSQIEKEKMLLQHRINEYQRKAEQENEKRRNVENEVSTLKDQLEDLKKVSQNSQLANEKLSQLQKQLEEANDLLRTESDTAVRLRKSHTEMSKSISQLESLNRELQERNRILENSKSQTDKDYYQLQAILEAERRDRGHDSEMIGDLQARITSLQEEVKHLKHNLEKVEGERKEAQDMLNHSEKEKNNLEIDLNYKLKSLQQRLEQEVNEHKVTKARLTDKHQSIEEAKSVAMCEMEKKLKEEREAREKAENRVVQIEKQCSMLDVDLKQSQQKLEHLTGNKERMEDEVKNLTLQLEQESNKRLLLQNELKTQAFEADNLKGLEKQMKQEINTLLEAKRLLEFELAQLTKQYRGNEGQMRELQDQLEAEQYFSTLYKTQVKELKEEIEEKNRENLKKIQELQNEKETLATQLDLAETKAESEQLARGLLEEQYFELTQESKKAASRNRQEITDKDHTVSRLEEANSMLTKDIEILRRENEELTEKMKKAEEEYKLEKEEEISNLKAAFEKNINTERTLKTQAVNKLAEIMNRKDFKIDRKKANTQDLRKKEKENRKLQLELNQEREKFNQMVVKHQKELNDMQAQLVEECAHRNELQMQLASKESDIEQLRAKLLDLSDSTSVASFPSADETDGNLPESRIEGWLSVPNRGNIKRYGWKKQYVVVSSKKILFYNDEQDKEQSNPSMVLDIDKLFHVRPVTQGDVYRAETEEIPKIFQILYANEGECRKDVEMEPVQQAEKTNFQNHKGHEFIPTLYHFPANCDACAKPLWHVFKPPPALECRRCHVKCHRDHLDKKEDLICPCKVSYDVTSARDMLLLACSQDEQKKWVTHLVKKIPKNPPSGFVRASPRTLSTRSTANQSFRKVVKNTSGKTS

Yes(h) = Yes(h) (Homo sapiens, UniProt P07947)
Sequence of Yes(h) (P07947 whole entry): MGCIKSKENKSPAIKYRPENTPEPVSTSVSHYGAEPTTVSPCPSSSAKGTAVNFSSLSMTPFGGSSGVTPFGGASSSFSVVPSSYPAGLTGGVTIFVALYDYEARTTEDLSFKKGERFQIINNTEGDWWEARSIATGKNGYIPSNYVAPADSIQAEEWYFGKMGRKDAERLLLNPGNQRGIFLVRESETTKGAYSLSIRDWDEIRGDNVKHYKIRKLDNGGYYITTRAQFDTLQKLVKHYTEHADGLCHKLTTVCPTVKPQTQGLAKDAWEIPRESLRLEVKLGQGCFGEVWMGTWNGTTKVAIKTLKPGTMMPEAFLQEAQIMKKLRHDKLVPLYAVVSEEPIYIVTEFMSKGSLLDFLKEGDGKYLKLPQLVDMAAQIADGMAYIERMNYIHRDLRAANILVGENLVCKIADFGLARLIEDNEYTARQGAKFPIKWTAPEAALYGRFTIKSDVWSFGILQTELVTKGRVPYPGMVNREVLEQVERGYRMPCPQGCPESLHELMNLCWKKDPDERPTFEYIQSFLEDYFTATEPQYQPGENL

ZIPK(h) = ZIPK(h) (Homo sapiens, UniProt O43293)

Sequence of CaMKIIγ(h) (Q13555 whole entry): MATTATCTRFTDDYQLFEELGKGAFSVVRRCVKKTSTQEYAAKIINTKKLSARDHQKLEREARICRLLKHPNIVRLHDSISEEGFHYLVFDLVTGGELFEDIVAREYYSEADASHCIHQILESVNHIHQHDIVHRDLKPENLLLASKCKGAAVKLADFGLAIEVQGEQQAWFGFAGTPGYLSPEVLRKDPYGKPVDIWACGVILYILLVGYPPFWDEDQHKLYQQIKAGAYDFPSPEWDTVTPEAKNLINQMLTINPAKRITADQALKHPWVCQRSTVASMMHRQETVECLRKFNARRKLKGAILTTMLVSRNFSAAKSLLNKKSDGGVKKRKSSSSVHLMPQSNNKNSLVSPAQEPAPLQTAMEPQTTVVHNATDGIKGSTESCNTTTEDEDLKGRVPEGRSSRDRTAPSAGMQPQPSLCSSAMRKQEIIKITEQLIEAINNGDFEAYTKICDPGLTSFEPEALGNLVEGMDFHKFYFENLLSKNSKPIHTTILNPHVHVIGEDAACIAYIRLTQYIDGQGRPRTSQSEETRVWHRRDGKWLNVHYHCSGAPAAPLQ

FAKLAARLYRKALARQLGVAA [MMI-0300]
% activity (CaMKIIγ(h)): 5% | % activity (DCAMKL2(h)): 81% | % activity (eEF-2K(h)): 91% | % activity (Flt4(h)): 83% | % activity (Haspin(h)): 48% | % activity (IR(h)): 96% | % activity (IRR(h)): 8% | % activity (NLK(h)): 87% | % activity (Pim-3(h)): 80% | % activity (PKBγ(h)): 20% | % activity (PKCθ(h)): 88% | % activity (PRK2(h)): 33% | % activity (ROCK-I(h)): 79% | % activity (Yes(h)): 67% | % activity (ZIPK(h)): 28%

HRRIKAWLKKIKALARQLGVAA [MMI-0500]
% activity (CaMKIIγ(h)): 3% | % activity (DCAMKL2(h)): 56% | % activity (eEF-2K(h)): 43% | % activity (Flt4(h)): 73% | % activity (Haspin(h)): 25% | % activity (IR(h)): 95% | % activity (IRR(h)): 10% | % activity (NLK(h)): 19% | % activity (Pim-3(h)): 37% | % activity (PKBγ(h)): 20% | % activity (PKCθ(h)): 62% | % activity (PRK2(h)): 7% | % activity (ROCK-I(h)): 17% | % activity (ZIPK(h)): 1%

KAFAKLAARLYRKALARQLGVAA [MMI-0400]
% activity (CaMKIIγ(h)): 3% | % activity (DCAMKL2(h)): 70% | % activity (eEF-2K(h)): 43% | % activity (Flt4(h)): 89% | % activity (Haspin(h)): 36% | % activity (IR(h)): 85% | % activity (IRR(h)): 8% | % activity (NLK(h)): 90% | % activity (Pim-3(h)): 80% | % activity (PKBγ(h)): 41% | % activity (PKCθ(h)): 76% | % activity (PRK2(h)): 27% | % activity (ROCK-I(h)): 73% | % activity (Yes(h)): 14% | % activity (ZIPK(h)): 13%

YARAAARQARAKALNRQLGVA [MMI-0200]
% activity (CaMKIIγ(h)): 94% | % activity (DCAMKL2(h)): 131% | % activity (Haspin(h)): 71% | % activity (IR(h)): 90% | % activity (IRR(h)): 69% | % activity (Pim-3(h)): 94% | % activity (PKCθ(h)): 101% | % activity (PRK2(h)): 74% | % activity (Yes(h)): 93% | % activity (ZIPK(h)): 67%
